Measured values published in patent US20210079074A1 (Alector, published 2021).
Values belong to the binder of their own block, whether it stands above or below them. No end group written: not given here. *: point of attachment. Biotin = O=C1N[C@H]2[C@H](CS[C@H]2CCCCC(=O)*)N1

Experiments:
human MS4A4A [1] = target: T1, human MS4A4A (human, UniProt Q96JQ5 1-239); assay: cell-based or functional assay
human MS4A4A [2] = target: T1, human MS4A4A; assay: cell-based or functional assay; remark: listed apart in the source
[3] = target: FcγRIIIa receptor (V158 variant) (UniProt P08637 17-254); assay: cell-based or functional assay
[4] = target: T2, FcγRIIa receptor (H131 variant) (UniProt P12318 34-317, limits assumed); assay: cell-based or functional assay
T2 sequence (looked up): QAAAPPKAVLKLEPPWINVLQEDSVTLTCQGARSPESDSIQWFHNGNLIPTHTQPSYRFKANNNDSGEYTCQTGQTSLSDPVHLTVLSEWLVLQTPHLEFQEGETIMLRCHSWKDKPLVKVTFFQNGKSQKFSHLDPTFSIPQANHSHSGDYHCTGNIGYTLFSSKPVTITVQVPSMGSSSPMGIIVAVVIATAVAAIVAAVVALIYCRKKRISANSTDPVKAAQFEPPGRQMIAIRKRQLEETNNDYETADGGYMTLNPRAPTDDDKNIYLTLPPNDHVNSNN

[5] = target: T3, recombinant MS4A4A soluble polypeptide JS5; assay: ELISA, 0.4 ug/ml antibody
T3 construct: also called JS5.His

[6] = target: T4, huMS4A4A-ECL2 free-peptide (human); assay: peptide ELISA, murine antibody
T4 construct: synthetic, free or BSA-conjugated, coated on the plate; also called human MS4A4A ECL2 peptide; huMS4A4A-ELC2 free-peptide
T4 peptide: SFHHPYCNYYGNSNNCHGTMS
Method: Coated plates were then blocked with ELISA diluent (PBS+0.5% BSA+0.05% Tween20) for 1-hour, washed 3×300 μL in PBST (PBS+0.05% Tween20, Thermo Cat#28352), and then the antibodies were added to the plate ([…]). After 30 mins incubation (room temperature, with shaking), the plates were washed 3×300 μL in PBST. […] After a final set of washes (3×300 μL in PBST), 50 μL of TMB substrate (BioFx Cat#TMBW-1000-01) was added and the reaction was then quenched after 5-10 mins with 50 μL of stop solution (BioFx Cat#BSTP-1000-01). The quenched reaction wells were detected for absorbance at […] with a BioTek Synergy Microplate Reader using GENS 2.04 software.

[7] = target: T5, recombinant MS4A4A soluble polypeptide JS1; assay: ELISA, 1 ug/ml antibody
T5 construct: also called JS1.His; loop grafted antigen
In short: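 Humanized anti-MS4A4A antibodies, expressed as human IgG1/kappa in Expi293 cells and protein A-purified, were added to streptavidin plates precoated 1 h with 1 μg/ml biotinylated antigen. Antibodies at 1, 0.33 or 0.11 μg/ml bound 1 hr at room temperature with shaking; detection used HRP goat anti-human kappa.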

[8] = target: T5, recombinant MS4A4A soluble polypeptide …; assay: ELISA, biotin-antigen on streptavidin plate
Method: (§1) Anti-MS4A4A antibodies of the present disclosure were tested for their ability to bind to the different recombinant MS4A4A soluble polypeptides, as described in Example 2, as follows. Nucleic acid encoding the VH and VL domains of humanized anti-MS4A4A antibodies of the present disclosure were cloned into pcDNA3.4 vector which contains either the human IgG1 heavy chain constant domain or human kappa constant domain. The humanized anti-MS4A4A antibodies were expressed in Expi293 cells and were purified by Mab select antibody purification resin (GE Healthcare Life Science, cat#17519902) following the manufacture's protocol. ELISA was performed to measure binding of anti-MS4A4A antibodies of the present disclosure the recombinant MS4A4A soluble polypeptides. 1 μg/ml biotinylated antigens were preincubated on the streptavidin-coated ELISA plates (Thermo Scientific, cat#PI15120) for 1 hour. Plates were washed 3 times, followed by the addition of antibodies (1 μg/ml, 0.33 μg/ml, and 0.11 μg/ml antibodies. Plates were incubated at room temperature with shaking for 1 hr, washed 3 times, then 1/2500 dilution of HRP conjugates goat anti human kappa antibodies added (SigmaAldrich cat#. A7164-1ML).

[9] = target: T6, negative control polypeptide JS4; assay: ELISA, biotin-antigen on streptavidin plate
T6 construct: negative control for JS1; also called JS4.His
Method: as §1

[10] = target: T7, negative control polypeptide JS10; assay: ELISA, biotin-antigen on streptavidin plate
T7 construct: negative control for JS5 and JS6; also called JS10.His
Method: as §1

[11] = target: T3, recombinant MS4A4A soluble polypeptide …; assay: ELISA, biotin-antigen on streptavidin plate
Method: as §1

[12] = target: T8, recombinant MS4A4A soluble polypeptide JS6; assay: ELISA, biotin-antigen on streptavidin plate
T8 construct: also called JS6.His
Method: as §1

peptide 4A.7 = target: T9, peptide 4A.7 (human); assay: SPR array, biotin-peptide on streptavidin chip
T9 peptide: Biotin-SFHHPYCNYYGNSNN
Description: (§2) A panel of overlapping peptides derived from the extracellular loops (ECLs) of human MS4A4A (SEQ ID NO:1) were synthesized by JPT peptides (Berlin, Germany). These peptides were 15 amino acids in length, each offset by 2 amino acids. The peptides were biotinylated on the N-terminus. Peptides 4A.1 through 4A.4 were derived from human MS4A4A ECL1 and surrounding regions. Peptides 4A.5 through 4A.12 were derived from human MS4A4A ECL2 and surrounding regions.
(§3) The peptide library was printed onto a streptavidin-coated chip (Xantec SAD50M, Dusseldorf, Germany) using the Continuous Flow Microspotter (CFM). […] The peptide library was immobilized onto the chip at 250 nM per peptide diluted into HBS-EP+ buffer (Teknova Cat #H8022) with 1 mg/ml BSA and 1 μg/ml mouse IgG-Biotin. Following immobilization, the chip surface was deactivated with 1M ethanolamine at pH 8.5 for 10 minutes. Hybridoma supernatants and purified anti-MS4A4A antibodies were diluted in HBS-EP+ buffer with 1 mg/ml BSA and injected onto the chip. Duplicate measurements for each anti-MS4A4A antibody were taken to ensure reproducibility. Binding characteristics were determined for each peptide-antibody combination, allowing the mapping of the linear peptide region each antibody interacts with.

peptide 4A.10 = target: T10, peptide 4A.10 (human, cysteine pairing not given here); assay: SPR array, biotin-peptide on streptavidin chip
T10 peptide: Biotin-CNYYGNSNNCHGTMS
Description: as §2, §3

peptide 4A.4 = target: T11, peptide 4A.4 (human); assay: SPR array, biotin-peptide on streptavidin chip
T11 peptide: Biotin-ASNTYGSNPISVYIG
Description: as §2, §3

peptide 4A.5 = target: T12, peptide 4A.5 (human); assay: SPR array, biotin-peptide on streptavidin chip
T12 peptide: Biotin-LAFYSFHHPYCNYYG
Description: as §2, §3

peptide 4A.3 = target: T13, peptide 4A.3 (human); assay: SPR array, biotin-peptide on streptavidin chip
T13 peptide: Biotin-CMASNTYGSNPISVY
Description: as §2, §3

peptide 4A.9 = target: T14, peptide 4A.9 (human, cysteine pairing not given here); assay: SPR array, biotin-peptide on streptavidin chip
T14 peptide: Biotin-PYCNYYGNSNNCHGT
Description: as §2, §3

peptide 4A.6 = target: T15, peptide 4A.6 (human); assay: SPR array, biotin-peptide on streptavidin chip
T15 peptide: Biotin-FYSFHHPYCNYYGNS
Description: as §2, §3

peptide 4A.12 = target: T16, peptide 4A.12 (human); assay: SPR array, biotin-peptide on streptavidin chip
T16 peptide: Biotin-GNSNNCHGTMSILMG
Description: as §2, §3

peptide 4A.8 = target: T17, peptide 4A.8 (human, cysteine pairing not given here); assay: SPR array, biotin-peptide on streptavidin chip
T17 peptide: Biotin-HHPYCNYYGNSNNCH
Description: as §2, §3

peptide 4A.11 = target: T18, peptide 4A.11 (human); assay: SPR array, biotin-peptide on streptavidin chip
T18 peptide: Biotin-YYGNSNNCHGTMSIL
Description: as §2, §3

peptide 4A.2 = target: T19, peptide 4A.2 (human); assay: SPR array, biotin-peptide on streptavidin chip
T19 peptide: Biotin-MMCMASNTYGSNPIS
Description: as §2, §3

peptide 4A.1 = target: T20, peptide 4A.1 (human); assay: SPR array, biotin-peptide on streptavidin chip
T20 peptide: Biotin-ITMMCMASNTYGSNP
Description: as §2, §3

Sequence of FcγRIIIa receptor (V158 variant) (P08637 other isoform, or with tags, fused parts or gaps mutant limits assumed): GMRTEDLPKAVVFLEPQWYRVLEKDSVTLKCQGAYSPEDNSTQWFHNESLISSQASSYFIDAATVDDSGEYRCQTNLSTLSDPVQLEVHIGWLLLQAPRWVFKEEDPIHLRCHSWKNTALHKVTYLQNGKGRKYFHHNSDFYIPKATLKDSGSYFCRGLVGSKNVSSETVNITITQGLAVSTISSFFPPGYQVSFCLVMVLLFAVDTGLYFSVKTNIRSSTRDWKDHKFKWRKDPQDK

EC50 of the increase of sTREM2, primary human macrophages (human MS4A4A [1]): 0.025 µg/mL
EC50 of the increase of mTREM2, primary human macrophages (human MS4A4A [2]): 0.028 µg/mL
luminescence, ADCC reporter, 3.048316 ng/mL [3]: 324
luminescence, ADCC reporter, 9.144947 ng/mL [3]: 356
luminescence, ADCC reporter, 27.43484 ng/mL [3]: 347
luminescence, ADCC reporter, 82.30453 ng/mL [3]: 360
luminescence, ADCC reporter, 246.9136 ng/mL [3]: 332
luminescence, ADCC reporter, 740.7407 ng/mL [3]: 363
luminescence, ADCC reporter, 2,222.222 ng/mL [3]: 431
luminescence, ADCC reporter, 6,666.667 ng/mL [3]: 415
luminescence, ADCC reporter, 20,000 ng/mL [3]: 442
luminescence, ADCP reporter, 3.048316 ng/mL [4]: 42
luminescence, ADCP reporter, 9.144947 ng/mL [4]: 45
luminescence, ADCP reporter, 27.43484 ng/mL [4]: 39
luminescence, ADCP reporter, 82.30453 ng/mL [4]: 58
luminescence, ADCP reporter, 246.9136 ng/mL [4]: 51
luminescence, ADCP reporter, 740.7407 ng/mL [4]: 61
luminescence, ADCP reporter, 2,222.222 ng/mL [4]: 55
luminescence, ADCP reporter, 6,666.667 ng/mL [4]: 227
luminescence, ADCP reporter, 20,000 ng/mL [4]: 250
B1: anti-MS4A4A antibody 4A-313 NSLF huIgG1 (antibody)
heavy: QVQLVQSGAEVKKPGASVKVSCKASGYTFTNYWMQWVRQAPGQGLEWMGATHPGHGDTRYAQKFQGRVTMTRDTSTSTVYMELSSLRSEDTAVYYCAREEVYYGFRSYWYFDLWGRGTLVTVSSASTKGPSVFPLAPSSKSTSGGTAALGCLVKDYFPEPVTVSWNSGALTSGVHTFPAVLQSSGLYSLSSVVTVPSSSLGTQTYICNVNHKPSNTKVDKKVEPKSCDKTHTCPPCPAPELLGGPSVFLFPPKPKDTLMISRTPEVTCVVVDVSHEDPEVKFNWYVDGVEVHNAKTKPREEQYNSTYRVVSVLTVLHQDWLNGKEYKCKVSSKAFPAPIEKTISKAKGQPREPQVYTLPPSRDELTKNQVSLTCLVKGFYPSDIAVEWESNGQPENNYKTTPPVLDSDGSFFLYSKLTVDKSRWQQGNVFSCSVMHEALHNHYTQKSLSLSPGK
light: EIVLTQSPATLSLSPGERATLSCRASESVDNYGVSRMNWYQQKPGQAPRLLIYGASNQGSGIPARFSGSGSGTDFTLTISSLEPEDFAVYYCQQSKEVPPTFGGGTKVEIKRTVAAPSVFIFPPSDEQLKSGTASVVCLLNNFYPREAKVQWKVDNALQSGNSQESVTEQDSKDSTYSLSSTLTLSKADYEKHKVYACEVTHQGLSSPVTKSFNRGEC

OD450 [5]: 0.925
binding result [6]: binds
OD450 [7]: 1.96
ELISA OD [8]: 2.02
ELISA OD [9]: 0.138
ELISA OD [10]: 0.112
ELISA OD [11]: 1.73
ELISA OD [12]: 1.67
SPR binding response (peptide 4A.7): 446
SPR binding response (peptide 4A.10): -4.5
SPR binding response (peptide 4A.4): -7.9
SPR binding response (peptide 4A.5): 383
SPR binding response (peptide 4A.3): -10.6
SPR binding response (peptide 4A.9): 225
SPR binding response (peptide 4A.6): 486
SPR binding response (peptide 4A.12): -5.2
SPR binding response (peptide 4A.8): 309
SPR binding response (peptide 4A.11): -6.5
SPR binding response (peptide 4A.2): -11.5
SPR binding response (peptide 4A.1): -11.2
B2: anti-MS4A4A antibody 4A-21 (antibody, V domains shown)
VH: QIQLVQSGPELKKPGETVKISCKASGYIFTSYGLSWVKQTPGKGLKWMGWINTYSGVPTYANDFKGRFAFSLETSASTTYLRINNLKNDDTATYFCARSLVDYWGQGTPLTVSS
VL: not shown
notes: murine parental; tested as mouse IgG1 or as human IgG1 Fc chimera (hFc), told under assay; also called 4A-21.hFc
